# Source: patent US20190015484A1, “NICOTINE-DEGRADING ENZYMES FOR TREATING NICOTINE ADDICTION AND NICOTINE POISONING” (priority 2015, published 2019)
# Where “and” joins values, the source holds several entries; their conditions need not be identical. Equal entries are not always repeated. Entries after “also recorded” stand apart in the source; their conditions may differ.
# Legend:
# Type in all cases: biochemical
# [1] = In vitro NicA2 activity in rat serum at physiologically relevant nicotine levels; settings: for % Reduction in nicotine levels in vitro: rat serum, 37° C.
# Method: NicA2 was diluted in rat serum (controls: serum without NicA2) to give a final concentration of 400 nM, 200 nM, and 20 nM. Nicotine was diluted in 50 mM HEPES pH 7.5 to give final amounts of 640, […], 80, 40, 20, 10, 5 and 2.5 ng (spanning a nicotine concentration range of 3.2 μg/ml to 12.5 ng/ml). The diluted NicA2 in serum and diluted nicotine were mixed 1:1 after pre-equilibration at 37° C. and 5 min (in 200 μl total). After 4 minutes or 20 minutes, reactions were diluted and quenched by addition of 800 μl H2O+500 μl 2M NaOH/0.2M NH4OH. At the highest NicA2 concentration (400 nM) initial plasma nicotine levels of 25 and 50 ng/ml dropped to <2 ng/ml at 4 min. (Table A).
# [2] = NicA2 co-factor assay (FAD or FMN); settings: 40 μM FMN or FAD, room temperature
# Method: An FAD or FMN stock solution was added to nicotine HEPES solution to obtain 80 μM FAD or FMN mixed with 4 μM nicotine. 100 μL each sample was mixed with
# 100 μL 40 nM NicA2 and incubated at room temperature for 20 min. An additional sample without FAD or FMN was prepared at the same time as the control. The samples were analyzed as described above.
# [3] = NicA2 degradation of nicotine in mouse serum; settings: 125, 250, 500 nM nicotine, 20 nM NicA2, mouse serum, 30 min
# Method: FIGS. 5A-5D illustrate the stability of the NicA2 enzyme. FIG. 5A graphically illustrates the thermal stability of the NicA2 enzyme as a function of temperature. FIG. 5B illustrates the stability of NicA2 at 37° C. in HEPES buffer (pH=7.4) as a function of time. […] FIG. 5C illustrates the stability of NicA2 in mouse serum at 37° C. over time. FIG. 5D graphically illustrates the ability of NicA2 to degrade nicotine in mouse serum. Concentrations of 125, 250, 500 nM nicotine with and without enzyme (20 nM NicA2) were incubated in serum for 30 min. Residual nicotine remaining after this time period was measured.
# As a means to test NicA2's efficiency “in vivo”, nicotine was doped with or without enzyme in serum (FIG. 5D). […] To further substantiate a conclusion that NicA2 can remove nicotine in vivo, NicA2's catabolism of nicotine was simulated based upon foregoing kinetic constants that were determined. NicA2 specificity constant is approximately 10^5 M^−1s^−1 and while clearly far from a perfect enzyme (10^8-10^9 M^−1s^−1).
# [4] = NicA2 Michaelis-Menten assay (LC-MS)
# Method: NicA2 activity was determined by LC-MS using Agilent 1260 Infinity liquid chromatography system with 6130 quadrupole mass spectrometry. 20 μl of each sample was injected to a Poroshell 120 EC-C8 column (4.6×50 mm, 2.7 μm, Agilent Technologies) subjected to a gradient (A to B where A=0.1% formic acid in water and B=0.1% formic acid in acetonitrile) of 0% B for 3 min, 0% B to 100% B from 3 to 7 min, and 100% B from 7 to 10 min at a constant flow rate of 0.5 ml/min. A column-solvent equilibration time of 3 min was conducted prior to next sample analysis. MS operational parameters were: API-ES mode, channel 1 (90%) positive single ion monitoring (SIM) of m/z 179 (30%), 161 (30%), 166 (30%) and 163 (10%), corresponding to the M+ peak of the reaction products, labeled internal standard and substrate respectively and channel 2 (10%) scan for positive ions; nitrogen as a nebulizing and drying gas (35 psi, 12 L/min), HV capillary voltage at 4 kV and the drying gas temperature to 300° C. To protect the detector from salts in the buffer, MS was turned on with a delay 1.4 min after injection.
# Nicotine was solubilized in ddH2O to a concentration of 10 mM as stock and diluted with HEPES buffer (50 mM, pH=7.4) in the assay. Then 100 μL nicotine solution was mixed with 100 μL NicA2 solution to obtain final concentrations of 0.0625, 0.125, 0.25, 0.5, 1, 2 […] and 10 nM NicA2. After incubating at room temperature for 20 min, 20 μL nicotine methyl D-3 (2 μM in 20% TFA/H2O) solution was added to the mixture as an internal standard and to quench the reaction as well. The samples were injected into the LC-MS for analysis.
# For standard curve generation, 0.03125, 0.0625, 0.125, 0.25, 0.5, 1, 2 μM nicotine and 0.4 μM NicA2 was tested and incubated for 2 h for complete oxidation of nicotine.
# For the assay at 37° C., all the operations were undertaken in a warm room (37° C.) and solutions were pre-warmed to 37° C. Subsequently protocols were followed as described, vide supra.
# Raw data was obtained with Agilent ChemStation, ions with m/z 179,161 (products), 166 (internal standard), 163 (nicotine) were extracted from MS channel 1 (SIM). The area of each peak was integrated and divided by internal standard (IS).
# Data was further analyzed with Prism 6.0. For standard curves, the ratios of products to IS were plotted against concentrations of converted nicotine and fitted with linear regression. For experiment data, the ratios were fitted to the standard curves to obtain converted nicotine concentration, and then divided by reaction time (20 min) to get v0. These v0 were plotted against substrate nicotine concentrations using he Michaelis-Menten model to obtain Km and Vmax.
# Upon reaction of nicotine with NicA2, three products were observed by LC-MS, one with m/z 179 (4) and two inseparable nicotine metabolites with m/z 161 (1 and 2, FIG. 2). Due to the limitation of instrument sensitivity and the dynamic equilibration of the products, direct quantification of the enzyme's efficiency was challenging. To compensate for these shortcomings, the product peaks 1, 2 and 4 were integrated in order to back-calculate the amount of nicotine consumed by NicA2. Standard curves were generated wherein nicotine was fully oxidized by NicA2 and the m/z 161/179 signals were plotted against a change in nicotine concentration, to provide a direct linear relationship (FIG. 3). The kinetic parameters of the enzyme were thus accurately determined.
# To determine kinetic parameters of the enzyme, curves were generated at varying nicotine concentrations utilizing 10 nM NicA2 at room temperature. Samples were analyzed by LC-MS using nicotine (methyl-D3) as an internal standard. Target m/z values (161, 179 and 166) were extracted, integrated and fit to obtain the velocity, v0.
molecule,measurement,setting,value
"NicA2: flavin-containing nicotine-degrading enzyme of Pseudomonas putida S16, amino acid sequence SEQ ID NO:1 (protein, His tag) MSDKTKTNEGFSRRSFIGSAAVVTAGVAGLGAIDAASATQKTNRASTVKGGFDYDVVVVGGGFAGATAARECGLQGYRTLLLEARSRLGGRTFTSRFAGQEIEFGGAWVHWLQPHVWAEMQRYGLGVVEDPLTNLDKTLIMYNDGSVESISPDEFGKNIRIAFEKLCHDAWEVFPRPHEPMFTERARELDKSSVLDRIKTLGLSRLQQAQINSYMALYAGETTDKFGLPGVLKLFACGGWNYDAFMDTETHYRIQGGTIGLINAMLTDSGAEVRMSVPVTAVEQVNGGVKIKTDDDEIITAGVVVMTVPLNTYKHIGFTPALSKGKQRFIKEGQLSKGAKLYVHVKQNLGRVFAFADEQQPLNWVQTHDYSDELGTILSITIARKETIDVNDRDAVTREVQKMFPGVEVLGTAAYDWTADPFSLGAWAAYGVGQLSRLKDLQAAEGRILFAGAETSNGWHANIDGAVESGLRAGREVKQLLS",% Reduction in nicotine levels in vitro,"[1]; 20 nM NicA2, nicotine 25 ng/ml",17%
same,% Reduction in nicotine levels in vitro,"[1]; 20 nM NicA2, nicotine 50 ng/ml",8%
same,% Reduction in nicotine levels in vitro,"[1]; 20 nM NicA2, nicotine 100 ng/ml",4%
same,% Reduction in nicotine levels in vitro,"[1]; 200 nM NicA2, nicotine 25 ng/ml",100%
same,% Reduction in nicotine levels in vitro,"[1]; 200 nM NicA2, nicotine 50 ng/ml",100%
same,% Reduction in nicotine levels in vitro,"[1]; 200 nM NicA2, nicotine 100 ng/ml",72%
same,nicotine level remaining,"[1]; 400 nM NicA2, initial nicotine 25 and 50 ng/ml, at 4 min",< 2 ng/mL
same,% Reduction in nicotine levels in vitro,"[1]; 400 nM NicA2, nicotine 25 ng/ml",100%
same,% Reduction in nicotine levels in vitro,"[1]; 400 nM NicA2, nicotine 50 ng/ml",100%
same,% Reduction in nicotine levels in vitro,"[1]; 400 nM NicA2, nicotine 100 ng/ml",94%
same,effect of added FMN or FAD on NicA2 activity,[2],no change in NicA2 activity; also recorded: did not affect the activity
same,nicotine consumed in serum,[3],consumed all nicotine
same,specificity constant,[4],approximately 10^5 M^−1s^−1
same,Km,[4]; 37° C.,0.092 µM and 0.0919 µM
same,kcat,[4]; 37° C.,(1.32±0.04)×10^−2 s^−1
same,kcat,"[4]; room temperature, m/z 161",(7.02 ± 0.23) × 10^−3 s^−1
same,Km,"[4]; room temperature, m/z 161, 10 nM NicA2",0.0462 ± 0.0064 µM
same,kcat,"[4]; room temperature, m/z 179",(6.64 ± 0.17) × 10^−3 s^−1
same,Km,"[4]; room temperature, m/z 179, 10 nM NicA2",0.043 µM and 0.0435 µM
